Experimental data: the nanobody polyreactivity screen of Harvey et al. (2022)

Experiment: yeast display, Sf9 membrane polyspecificity reagent, FACS + sequencing; frameworks hold sequencing errors
Procedure, shortened: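 Galactose-induced (36–48 hours) yeast carrying a synthetic nanobody display library were exposed to 10% biotinylated, detergent-solubilized Sf9 membrane reagent at 4 °C for 1 hour. FACS followed streptavidin microbead enrichment, using low and high (top ~1%) gates for expression (anti-HA) and reagent binding (streptavidin). Colony PCR, MiSeq 2 × 250 sequencing and CDR-length filtering followed. Labels for polyreactivity reflect the gate of origin.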

| Sequence | polyreactivity (PSR sort gate) |
| --- | --- |
| QVQLVESGGGLVQAGGSLRLSCAASGRIFAYYAMGWYRQAPGKERELVAAINWSGDGTIYADSVKWRFTISRDNAKNTVYLQMNSLKPQDTAVYYCNADWTSYGFGTRLDYWGQGNQVTVSS | low polyreactivity |
| QVQLVESGGGLVQAGGSLRLSCAASGRIFAYYAMGWYRQAPGKERELVAAISGGGGSTYYADSVKGRFTISRDNAKNTVYLQMNSLKPEDTAVYYCAARYTVYSATGRYYYWGQGTQVTVSS | high polyreactivity |
| QVQLVESGGGLVQAGGSLRLSCAASGRIFAYYAMGWYRQAPGKERELVAAISRSGVSTYYADSVKGRFTISRDNAKNTVYLQMNSLKPEDTAVYYCAASWWYEIFDYWGQGTQVTVSS | low polyreactivity |
| QVQLVESGGGLVQAGGSLRLSCAASGRIFAYYAMGWYRQAPGKERELVATISVTGGSTYYADSVKGRFTISRDNAKNTVYLQMNSLKPEDTAVYYCNVDPGTYWPYSGEDYWGQGTQVTVSS | low polyreactivity |
| QVQLVESGGGLVQAGGSLRLSCAASGRIFCDNGMGWYRQAPAKESELVTYADSVKGLFTISRDNAKNTVYLQMNSLKPEDTAVYYCNKDPPRFSGLDENYWGQGTQVTVSS | low polyreactivity |
| QVQLVESGGGLVQAGGSLRLSCAASGRIFCFNAMGWYRQAPGKERELVAAISGTGGSTYYADSEKGRFTISRDNAKNTVYLQMNSLKPEDTAVYYCAAFYNYYGQRYYYWGQGTQVTVSS | high polyreactivity |
| QVQLVESGGGLVQAGGSLRLSCAASGRIFCKYAMGWYIQAPGKERELVAAISRSGASTYYADSVKGRFTISRDNAKNTVYLQMNSLKPEDTAVYYCAAVPPYNYRFRVYYWGQGTQVTVSS | high polyreactivity |
| QVQLVESGGGLVQAGGSLRLSCAASGRIFDCYAMGWYSQAPGKERELVAAITSRGGSTYYADSVKGRFTISRDNAKNTVYLQMNSLKPEDTAVYYCAKRSTSRGYDYWGQGTQVTVSS | high polyreactivity |
| QVQLVESGGGLVQAGGSLRLSCAASGRIFDDNAMGWYRQAPGKETELVAAISSSGGSTYYADSVKGRFTISRDNAKNSVYLQMNSLKPEDTAVYYCAKAPGQDTPYPYGYWGQGTQVTVSS | high polyreactivity |
| QVQLVESGGGLVQAGGSLRLSCAASGRIFDDNTMGWYRQAPGKEREVVAAISVSGGRTYYADSVKGRFTISRDNAKNTVYIQMNSLKPEDTAVYYCNARLGPFWDYRLKNGTHDYWGQGTQVTVAS | high polyreactivity |
| QVQLVESGGGLVQAGGSLRLSCAASGRIFDDYVMGWYRKAPGKERELVARISVRGGSTYYADSVKGRFTISRDNAKNTVYLQMNSLKPEDTAVYYCNAVFGGWLGPFDYWGQGTQVTVSS | low polyreactivity |
| QVQLVESGGGLVQAGGSLRLSCAASGRIFDFNAMGWYRQAPGKEREFVAAIRTSGGDSTYYADSVKGRFTISRDNAKTTVYLQMNSLTPEDTAVYYCAKTVWWYYRYPFDYWGQGTQVTVSS | low polyreactivity |
| QVQLVESGGGLVQAGGSLRLSCAASGRIFDGNAMGWYRKAPGKERELVATITRGGRTNYADSVKGRFTISRDNAKNTVYLQMNSLKPEDTAVYYCNAPIYGRYYDLDYWGQGTQVTVSS | low polyreactivity |
| QVQLVESGGGLVQAGGSLRLSCAASGRIFDGNAMGWYRQAPGKERELVAAISSSGGSTYYADSVKGRFTISRDNAKNTVYLQMNSLKPEDTAVYYCAYPLRRTWGNYRYGYWGQGTQVTVSS | high polyreactivity |
| QVQLVESGGGLVQAGGSLRLSCAASGRIFDGYAMGWYRQAPGKERELVAAISNGGGSTYYADSVKGRFTISRDNAKNTVYLQMNSLKPEDTAVYYCAARIFSRYTRNYWGQGTQVTVSS | high polyreactivity |
| QVQLVESGGGLVQAGGSLRLSCAASGRIFDHNAMGWYRQAPGKERELVAAIDSGTSTNYADSVKGRFTISRDNAKNTVYLQMNSLKPEDTAVYYCARLLGPVRDKYDYDYWGQGTQVTVSS | low polyreactivity |
| QVQLVESGGGLVQAGGSLRLSCAASGRIFDIYAMGWSRQAPGKERELVAAIDESGGSTYYADSVKGRFTISRDNAKNTVYLQMNSLKPEDTAVDYCATDDTWTIAYGWYWFTYEYWGQGTQVTVSS | low polyreactivity |
| QVQLVESGGGLVQAGGSLRLSCAASGRIFDIYAMGWYRQAPGKEGELVAAIRLSSGTTYYADSLKGRITISRDYAKNNVYLQMSSVKQEDSAVYYCNAIYRRGRPGYYYWGQGTQVNVSS | high polyreactivity |
| QVQLVESGGGLVQAGGSLRLSCAASGRIFDIYAMGWYRQAPGKERELVAAIDESGGSTYYADSVKGRFTISRDNAKNTVYLQMNSLKPEDTAVYYCATVDTWTISYGWYCFTYEYWGQCTQVTVSS | low polyreactivity |
| QVQLVESGGGLVQAGGSLRLSCAASGRIFDIYAMGWYRQAPGKERELVAGITWRAGSTYYADSVKGRFTISRDNAKNTVYLQMNSLKPEDTAVYYCAAEVWVTDPYWGDFYYWGHGTQVTVSS | low polyreactivity |
| QVQLVESGGGLVQAGGSLRLSCAASGRIFDIYGMGWYRQAPGKERELVAAITSGGSTYYADSVKGRFTISRDNAKNTVYLQMNSLKPEDTAVYYCAADSVLLKDTGYDYWGQGTQVTVSS | low polyreactivity |
| QVQLVESGGGLVQAGGSLRLSCAASGRIFDKYAMGWYRQAPGKERELVAAITRSGGRTYYADSVKGRFTISRDNAKNTVYLQMNSLKPEDTAVYYCAARYVSRFDWGQGTQVTVSS | high polyreactivity |

| Sequence | polyreactivity (PSR sort gate) |
| --- | --- |
| QVQLVESGGGLVQAGGSLRLSCAASGRIFDLNAMGWYRQAPGKERELVAAISYSGDRTYYADSVKGRFTISRDNAKNTVYLQMNSLKPEDTAVYYCNVRKTWYGYSVTGRYDYWGQGTQVTVSS | low polyreactivity |
| QVQLVESGGGLVQAGGSLRLSCAASGRIFDPYAMGGYRQAPGKERELVANITLRGGITYYADSVKGRFTISRDNAKNTVYLQMNSLKPEDTAVYDCNADGYPDVGAGTYGYWGQGTQVTVSS | low polyreactivity |
| QVQLVESGGGLVQAGGSLRLSCAASGRIFDPYAMGWYRQAPGKERELVATITRSGGSTYYADSVKGRFTISRDNAKNTVYLQMNSLKPEDTAVYYCAVGDGFEYDWGQGTQVTVSS | low polyreactivity |
| QVQLVESGGGLVQAGGSLRLSCAASGRIFDQYAMGWYRQAPGKERELVAAITSGGSTYYADSVKGRFTISRDNAKNTVYLQMNSLKPEDTAVYYCAAEWQWYGYVLYKYYYWGQGTQVTVSS | high polyreactivity |
| QVQLVESGGGLVQAGGSLRLSCAASGRIFDRNAMGWYRPAPGKERELVAAISRRGGSTYYADSVKGRITISRDNAKNTVYLQMNSLKPEDTAVYYCAARFLYRSVKMDYWGQGTQVTVSS | high polyreactivity |
| QVQLVESGGGLVQAGGSLRLSCAASGRIFDRNAMGWYRQAPGKERELVAAISWSGGRTYYADSVKGRFTISRDNAKNTVYLQMNSLKPEDTAVYYCAADHYPWWAWEFDYWGQGTQVTVSS | low polyreactivity |
| QVQLVESGGGLVQAGGSLRLSCAASGRIFDRNAMGWYRQARGKARELVARIDPGDDTNYADSVKGRFTISRDNAKNKVYLQMNSLQPEDTAVYYCATDPDYVLYRTAYYEYDYWGQGTQVTVSS | low polyreactivity |
| QVQLVESGGGLVQAGGSLRLSCAASGRIFDRYGMGWYRQAPGKERELLAAITSRGGSTYYADSVKGRFTISRDNAKNTVYLQMNSLKPEDTAVYYCAAYGRYGFGRVERYDYWGQGTQVTVSS | high polyreactivity |
| QVQLVESGGGLVQAGGSLRLSCAASGRIFDSNAMGWYRPAPGKERELVAAISYDGGSTYYADSVKGRFTISRDNAKNTVYLQMNSLKPEDTAVYYCAADDGWYYYYGYDYWGQGTQVTVSS | low polyreactivity |
| QVQLVESGGGLVQAGGSLRLSCAASGRIFDSNAMGWYRQAPGTEREFVAAITYSSGSTYYRNSVKGRFTISRDNAKNTVYLQMNSLKPEDTAVYYCAAVLYWRTLSSRYDYWGQGTQVTVSS | high polyreactivity |
| QVQLVESGGGLVQAGGSLRLSCAASGRIFDTNAMGWYRQAPGKERELVAAISSSGGRTYYADSVKGRFTISRDNAKNTVYLQMNSLRPEDTAVYYCARVPITKDQYSHYYYWGQGTQVTVSS | high polyreactivity |
| QVQLVESGGGLVQAGGSLRLSCAASGRIFDVYAMGWYRQAPGKERELVAAITWSGTSTYYADSVKGRFTISRDNAKNTVYLQMNSLKPEDTAVYYCAAEVAYTDTEYFWYYYWGQGTQVTVSS | high polyreactivity |
| QVQLVESGGGLVQAGGSLRLSCAASGRIFDYNAMGWYRQAPGKERELVASITQRGDITYYADSVKGRFTISRDNAKNTVYLQMNSLKPEDTAVYYCNADGVRVWVLPYVLYTGDYWGQGTQVTVSS | low polyreactivity |
| QVQLVESGGGLVQAGGSLRLSCAASGRIFDYYAMGWNRQAPGKERELVAAITWSGGNTYYADSVKGRFTISRDNAKNTVYLQMNSLKPEDTAVYYCAAEYYYLNDIYSEYDYWGQGTQVTVSS | high polyreactivity |
| QVQLVESGGGLVQAGGSLRLSCAASGRIFDYYAMGWYRQAPGKERELVAAITSSTGSTYYADSVKGRFTISRDNAKNTVYLQMNSLKPEDTAVYYCAAERTYLDRGFDYWGQGTQVTVSS | low polyreactivity |
| QVQLVESGGGLVQAGGSLRLSCAASGRIFEAYAMGWYRQAPGKERELVAAISGSGGSTYYADSVKGRFTISRDNAKNTVYLQMNSLKPEDTAVYYCAADDYYRVYWGQGTQVTVSS | high polyreactivity |
| QVQLVESGGGLVQAGGSLRLSCAASGRIFEGYAMGWYRQAPGKERELVAAITGSGGGTYYADSVKGRFTISRDNAKNTVYLQMNSLKPEDTAVYYCATAYSAYQHPYGYWGKGTQVTVSS | low polyreactivity |
| QVQLVESGGGLVQAGGSLRLSCAASGRIFEGYAMGWYRQAPGKERELVAAITGSGGGTYYADSVKGRFTISRDNAKNTVYLQMNSLKPEDTAVYYCATAYSAYQHPYGYWGQGTQVTVSS | low polyreactivity |
| QVQLVESGGGLVQAGGSLRLSCAASGRIFEHNAMGWYRQAPGKEREFVAAISSSGGSTYYADSVKGRITISRDNAKNTVYLQMNSLKPVDTAVYYCNAGSTYYERNYWGQGTQVTVSS | low polyreactivity |
| QVQLVESGGGLVQAGGSLRLSCAASGRIFEINTMGWYRQAPGKERELVAAISRGGGSTYYADSVKGRFTISRDNAKNTVYLQMNSLKPEDTAVYYCAAASYYVEGDYWGQGTQVTVSS | low polyreactivity |
| QVQLVESGGGLVQAGGSLRLSCAASGRIFEIYAMGWYRQAPGTERELVAPISWRGVSTYYADSVKGRFTISRDNAKNTVYVQMNSLKAEDTAVYYCGPELGWGGFYKDGDASQFDYWGQGTQVTVSS | low polyreactivity |
